Experimental data reported in patent US20110118131A1 (published 2011).
Positions count from the first letter of the chain named. Numbers in names are those of the source.

B1: XPA23 Fab, heavy chain K31R (Fab, V domains shown)
VH: EVQLLESGGGLVQPGGSLRLSCAASGFTFSRYFMFWVRQAPGKGLEWVSVISPSGGMTRYADSVKGRFTISRDNSKNTLYLQMNSLRAEDTAVYYCARVGYGGNSDYWGQGTLVTVSS
VL: DIQMTQSPSSVSASVGDRLTIICRASQDINRWLAWYQQTPGNAPKLLIHSATSLQSGVPSRFSGSGSGTDFTLTINSLQPEDFATYYCQQADSFPLTFGGGTKVEIK
B2: XPA23 Fab, heavy chain M57H (Fab, V domains shown)
VH: B1 VH with R31K, M57H
VL: B1 VL
B3: XPA23 Fab, heavy chain P53Q (Fab, V domains shown)
VH: B1 VH with R31K, P53Q
VL: B1 VL
B4: XPA23 Fab, heavy chain R59F (Fab, V domains shown)
VH: B1 VH with R31K, R59F
VL: B1 VL
B5: XPA23 Fab, heavy chain N104H (Fab, V domains shown)
VH: B1 VH with R31K, N104H
VL: B1 VL
B6: XPA23 Fab, heavy chain P53H (Fab, V domains shown)
VH: B1 VH with R31K, P53H
VL: B1 VL
B7: XPA23 Fab, heavy chain M57N (Fab, V domains shown)
VH: B1 VH with R31K, M57N
VL: B1 VL
B8: XPA23 Fab, heavy chain P53Y (Fab, V domains shown)
VH: B1 VH with R31K, P53Y
VL: B1 VL
B9: XPA23 Fab, heavy chain K31S (Fab, V domains shown)
VH: B1 VH with R31S
VL: B1 VL
B10: XPA23 Fab, heavy chain K31Y (Fab, V domains shown)
VH: B1 VH with R31Y
VL: B1 VL
B11: XPA23 Fab, heavy chain R59E (Fab, V domains shown)
VH: B1 VH with R31K, R59E
VL: B1 VL
B12: XPA23 Fab, heavy chain P53S (Fab, V domains shown)
VH: B1 VH with R31K, P53S
VL: B1 VL
B13: XPA23 Fab, heavy chain R59W (Fab, V domains shown)
VH: B1 VH with R31K, R59W
VL: B1 VL
B14: XPA23 Fab, heavy chain R59Q (Fab, V domains shown)
VH: B1 VH with R31K, R59Q
VL: B1 VL
B15: XPA23 Fab, heavy chain M57S (Fab, V domains shown)
VH: B1 VH with R31K, M57S
VL: B1 VL
B16: XPA23 Fab, heavy chain P53F (Fab, V domains shown)
VH: B1 VH with R31K, P53F
VL: B1 VL
B17: XPA23 Fab, heavy chain M57Y (Fab, V domains shown)
VH: B1 VH with R31K, M57Y
VL: B1 VL
B18: XPA23 Fab, heavy chain N104F (Fab, V domains shown)
VH: B1 VH with R31K, N104F
VL: B1 VL
B19: XPA23 Fab, heavy chain M57R (Fab, V domains shown)
VH: B1 VH with R31K, M57R
VL: B1 VL
B20: XPA23 Fab, heavy chain M57D (Fab, V domains shown)
VH: B1 VH with R31K, M57D
VL: B1 VL
B21: XPA23 Fab, heavy chain P53K (Fab, V domains shown)
VH: B1 VH with R31K, P53K
VL: B1 VL
B22: XPA23 Fab, heavy chain R59N (Fab, V domains shown)
VH: B1 VH with R31K, R59N
VL: B1 VL
B23: XPA23 Fab, heavy chain P53E (Fab, V domains shown)
VH: B1 VH with R31K, P53E
VL: B1 VL
B24: XPA23 Fab, heavy chain N104R (Fab, V domains shown)
VH: B1 VH with R31K, N104R
VL: B1 VL
B25: XPA23 Fab, heavy chain R59H (Fab, V domains shown)
VH: B1 VH with R31K, R59H
VL: B1 VL
B26: XPA23 Fab, heavy chain S30D (Fab, V domains shown)
VH: B1 VH with S30D, R31K
VL: B1 VL
B27: XPA23 Fab, heavy chain N104E (Fab, V domains shown)
VH: B1 VH with R31K, N104E
VL: B1 VL
B28: XPA23 Fab, heavy chain M57K (Fab, V domains shown)
VH: B1 VH with R31K, M57K
VL: B1 VL
B29: XPA23 Fab, heavy chain R59K (Fab, V domains shown)
VH: B1 VH with R31K, R59K
VL: B1 VL
B30: XPA23 Fab, heavy chain M57F (Fab, V domains shown)
VH: B1 VH with R31K, M57F
VL: B1 VL
B31: XPA23 Fab, heavy chain K31W (Fab, V domains shown)
VH: B1 VH with R31W
VL: B1 VL
B32: XPA23 Fab, heavy chain R59D (Fab, V domains shown)
VH: B1 VH with R31K, R59D
VL: B1 VL
B33: XPA23 Fab, heavy chain P53W (Fab, V domains shown)
VH: B1 VH with R31K, P53W
VL: B1 VL
B34: XPA23 Fab, heavy chain N104S (Fab, V domains shown)
VH: B1 VH with R31K, N104S
VL: B1 VL
B35: XPA23 Fab, heavy chain M57Q (Fab, V domains shown)
VH: B1 VH with R31K, M57Q
VL: B1 VL
B36: XPA23 Fab, heavy chain N104W (Fab, V domains shown)
VH: B1 VH with R31K, N104W
VL: B1 VL
B37: XPA23 Fab, heavy chain M57E (Fab, V domains shown)
VH: B1 VH with R31K, M57E
VL: B1 VL
B38: XPA23 Fab, heavy chain S30E (Fab, V domains shown)
VH: B1 VH with S30E, R31K
VL: B1 VL
B39: XPA23 Fab, heavy chain N104Q (Fab, V domains shown)
VH: B1 VH with R31K, N104Q
VL: B1 VL
B40: XPA23 Fab, heavy chain P53D (Fab, V domains shown)
VH: B1 VH with R31K, P53D
VL: B1 VL
B41: XPA23 Fab, heavy chain N104K (Fab, V domains shown)
VH: B1 VH with R31K, N104K
VL: B1 VL
B42: XPA23 Fab, heavy chain P53N (Fab, V domains shown)
VH: B1 VH with R31K, P53N
VL: B1 VL
B43: XPA23 Fab, heavy chain R59S (Fab, V domains shown)
VH: B1 VH with R31K, R59S
VL: B1 VL
B44: XPA23 Fab, heavy chain N104D (Fab, V domains shown)
VH: B1 VH with R31K, N104D
VL: B1 VL
B45: XPA23 Fab, heavy chain R59Y (Fab, V domains shown)
VH: B1 VH with R31K, R59Y
VL: B1 VL
B46: XPA23 Fab, heavy chain N104Y (Fab, V domains shown)
VH: B1 VH with R31K, N104Y
VL: B1 VL

Biological target: T1, IL-1beta (UniProt P01584 117-269)
T1 construct: also called IL-1β
Assay: Biacore

Row | fold difference in affinity vs parental | binding result | Binder
1 | 0.9 fold | – | B1
2 | 0.08 fold | – | B2
3 | 0.03 fold | – | B3
4 | 0.92 fold | – | B4
5 | 0.07 fold | – | B5
6 | – | no binding | B6
7 | 0.03 fold | – | B7
8 | 0.03 fold | – | B8
9 | – | no binding | B9
10 | 0.04 fold | – | B10
11 | – | no binding | B11
12 | 0.03 fold | – | B12
13 | 0.09 fold | – | B13
14 | 0.86 fold | – | B14
15 | 0.04 fold | – | B15
16 | 0.05 fold | – | B16
17 | 0.86 fold | – | B17
18 | – | no binding | B18
19 | 0.06 fold | – | B19
20 | – | no binding | B20
21 | 0.04 fold | – | B21
22 | 0.86 fold | – | B22
23 | 0.03 fold | – | B23

Row | fold difference in affinity vs parental | binding result | Binder
24 | – | no binding | B24
25 | – | no binding | B25
26 | – | no binding | B26
27 | – | no binding | B27
28 | 0.04 fold | – | B28
29 | 0.94 fold | – | B29
30 | 1.03 fold | – | B30
31 | 0.84 fold | – | B31
32 | – | no binding | B32
33 | 0.05 fold | – | B33
34 | 1.02 fold | – | B34
35 | 0.02 fold | – | B35
36 | – | no binding | B36
37 | – | no binding | B37
38 | – | no binding | B38
39 | 0.03 fold | – | B39
40 | – | no binding | B40
41 | – | no binding | B41
42 | 0.06 fold | – | B42
43 | 0.13 fold | – | B43
44 | – | no binding | B44
45 | – | no binding | B45
46 | – | no binding | B46
